We go through one protein from patent US20140045930.

Series [1] deals with T1, octameric peptide AVSEATIR
T1 chain: AVSEATIR

In series [2] the target is T2, peptide AQYPQEVITTVRG (PhoP).
T2 chain: AQYPQEVITTVRG

Series [3] concerns the target T3, peptide ATVAKCVEALKERFQASLRD (PheT).
T3 chain: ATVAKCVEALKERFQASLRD

Series [4] addresses T4, peptide ELNREQKWQMMLSKSMRR (CaiF).
T4 chain: ELNREQKWQMMLSKSMRR

Series [5] concerns the target T5, peptide KHVQALDLSMRFR (Nicotinate-nucleotide diphosphorylase).
T5 chain: KHVQALDLSMRFR

Series [6] has as its target T6, peptide KLLRLFFPLSLRV (PhoQ).
T6 chain: KLLRLFFPLSLRV

The target of series [7] is T7, peptide KTPLAVLQSTLRS (PhoQ).
T7 chain: KTPLAVLQSTLRS

Series [8] has as its target T8, peptide KTPLAVLQSTLRSLR (PhoQ).
T8 chain: KTPLAVLQSTLRSLR

Series [9] deals with T9, peptide KWQMMLSKSMRR (CaiF).
T9 chain: KWQMMLSKSMRR

The target in series [10] is T10, peptide LAVLQSTLRSLRS (PhoQ).
T10 chain: LAVLQSTLRSLRS

The target in series [11] is T11, peptide LLRLFFPLSLRV (PhoQ).
T11 chain: LLRLFFPLSLRV

In series [12] the target is T12, peptide LTELNREQKWQMMLSKSMRR (CaiF).
T12 chain: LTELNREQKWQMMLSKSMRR

For series [13], the target named is T13, peptide LTHSLKTPLAVLQSTLRS (PhoQ).
T13 chain: LTHSLKTPLAVLQSTLRS

Series [14] has as its target T14, peptide NTHRGMGYSLRGL (CreB).
T14 chain: NTHRGMGYSLRGL

The target in series [15] is T15, peptide RLLPAVSEATIRRL
T15 chain: RLLPAVSEATIRRL

In series [16] the target is T16, peptide VAKCVEALKERFQASLRD (PheT).
T16 chain: VAKCVEALKERFQASLRD

The target of series [17] is T17, peptide VEALKERFQASLRD (Phenylalanyl-tRNA synthetase).
T17 chain: VEALKERFQASLRD

B1: Recombinant YcfD, N-terminally hexa-His tagged (E. coli) (protein)
chain: MEYQLTLNWPDFLERHWQKRPVVLKRGFNNFIDPISPDELAGLAMESEVDSRLVSHQDGKWQVSHGPFESYDHLGETNWSLLVQAVNHWHEPTAALMRPFRELPDWRIDDLMISFSVPGGGVGPHLDQYDVFIIQGTGRRRWRVGEKLQMKQHCPHPDLLQVDPFEAIIDEELEPGDILYIPPGFPHEGYALENAMNYSVGFRAPNTRELISGFADYVLQRELGGNYYSDPDVPPRAHPADVLPQEMDKLREMMLELINQPEHFKQWFGEFISQSRHELDIAPPEPPYQPDEIYDALKQGEVLVRLGGLRVLRIGDDVYANGEKIDSPHRPALDALASNIALTAENFGDALEDPSFLAMLAALVNSGYWFFEG
For the protein B1, the “position of hydroxylation (2D-NMR after incubation with YcfD)” value in series [1] is reported as 2D-NMR analyses revealed the position of hydroxylation as at C-3 of the hydroxylated arginine-residue. Further, the “% hydroxylation (+16 Da)” value in series [2] is on record as 60%; in [3] it was 40%; in [4], 40%; in [5], 30%; in series [6] it was 60%; in [7], 95%. Further, the “% hydroxylation (+16 Da)” value was found to be 40% in series [8]; 30% in [9]; 60% in series [10]; 50% in series [11]; 40% in [12]; 90% in [13]. Besides, the entries for the “% hydroxylation (+16 Da)” value in series [14], in [16] and in [17] were 30%, 50% and 40%, respectively. In series [15], the “+16Da mass shift (hydroxylation, MALDI-TOF MS)” value is “gave a +16Da mass shift upon incubation with YcfD in an Fe(II) and 2OG dependent manner”.
